From the supplement of paper PMC7877785
± gives the uncertainty stated by the source.

Test: self-splicing fitness, log relative to wild type (ln ratio); higher = more splicing; Tetrahymena group I intron in knt gene, E. coli kanamycin selection, DiMSum; sequences stand for … in CUCUCU…GGAGGGAAAAGUUAUCAGGCAUGCACCUGGUAGCUAGUCUUUAAACCAAUAGAUUGCAUCGGUUUAAAAGGCAAGACCGUCAAAUUGCGGGAAAGGGGUCAACAGCCGUUCAGUACCAAGUCUCAGGGGAAACUUUGAGAUGGCCUUGCAAAGGGUAUGGUAAUAAGCUGACGGACAUGGUCCUAACCACGCAGCCAAGUCCUAAGUCAACAGAUCUUCUGUUGAUAUGGAUGCAGUUCACAGACUAAAUGUCGGUCGGGGAAGAUGUAUUCUUCUCAUAAGAUAUAGUCGGACCUCUCCUUAAUGGGAGCUAGCGGAUGAAGUGAUGCAACACUGGAGCCGCUGGGAACUAAUUUGUAUGCGAAAGUAUAUUGAUUAGUUUUGGAGUACUCGUGGUCG
In short: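 The eight P1ex-region nucleotides of an intron in the knt kanamycin-resistance gene on pET-22b(+) were all randomised and the library put into E. coli BL21(DE3). Six replicate transformations were grown overnight at 37°C or 30°C on LB agar with or without 25 μg/mL kanamycin, together with 100 μg/mL carbenicillin, 50 μM IPTG and 0.2% rhamnose. Colonies were pooled and amplicon-sequenced on an Illumina HiSeq 2500. Fitness from DiMSum is the error-weighted combination of wild-type-normalised replicate fold changes, kanamycin over none.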

Sequence | self-splicing fitness (ln) (30 °C) | self-splicing fitness (ln) (37 °C)
CCCUAGCAAUAUUACGAUCU | -3.92 ± 0.28 | -2.74 ± 0.24
CCCUAGCAAUAUUACGAUGC | -3.12 ± 0.2 | -2.22 ± 0.31
CCCUAGCAAUAUUACGCAUA | -3.33 ± 0.27 | -1.99 ± 0.2
CCCUAGCAAUAUUACGCAUC | -3.26 ± 0.25 | -2 ± 0.2
CCCUAGCAAUAUUACGCCAA | -3.03 ± 0.25 | -2.74 ± 0.41
CCCUAGCAAUAUUACGCCAG | -3.87 ± 0.32 | -3.21 ± 0.37
CCCUAGCAAUAUUACGCCUA |  | -2.48 ± 0.34
CCCUAGCAAUAUUACGCCUC | -3.29 ± 0.27 | -3.81 ± 0.31
CCCUAGCAAUAUUACGCCUU | -3.23 ± 0.16 | -3.08 ± 0.4
CCCUAGCAAUAUUACGCGGC | -1.47 ± 0.21 | -2.36 ± 0.41
CCCUAGCAAUAUUACGCGUG | -5.09 ± 0.41 | -1.06 ± 0.13
CCCUAGCAAUAUUACGCUAG | -4.18 ± 0.34 | -2.47 ± 0.28
CCCUAGCAAUAUUACGCUGU | -4.59 ± 0.31 | -2.63 ± 0.21
CCCUAGCAAUAUUACGCUUG | -3.94 ± 0.42 | -2.18 ± 0.28
CCCUAGCAAUAUUACGGAAA | -3.33 ± 0.27 | -1.5 ± 0.24
CCCUAGCAAUAUUACGGACG | -2.32 ± 0.097 | -1.15 ± 0.11
CCCUAGCAAUAUUACGGAUG | -3.17 ± 0.15 | -1.53 ± 0.11
CCCUAGCAAUAUUACGGCUU | -3.76 ± 0.18 | -2.26 ± 0.18
CCCUAGCAAUAUUACGGGAG | -3.67 ± 0.18 | -1.79 ± 0.14
CCCUAGCAAUAUUACGGUCA | -2.57 ± 0.18 | -2.65 ± 0.28
CCCUAGCAAUAUUACGGUGU | -3.05 ± 0.098 | -2.19 ± 0.11
CCCUAGCAAUAUUACGUAAU | -3.5 ± 0.22 | -2.83 ± 0.25
CCCUAGCAAUAUUACGUCGC | -3.12 ± 0.21 | -2.64 ± 0.25
CCCUAGCAAUAUUACGUCUA | -2.5 ± 0.19 | -2.12 ± 0.2

Sequence | self-splicing fitness (ln) (30 °C) | self-splicing fitness (ln) (37 °C)
CCCUAGCAAUAUUACGUGAC | -2.85 ± 0.15 | -2.29 ± 0.34
CCCUAGCAAUAUUACGUGCG | -2.36 ± 0.13 | -2.97 ± 0.17
CCCUAGCAAUAUUACGUUGG | -3.97 ± 0.23 | -2.48 ± 0.2
CCCUAGCAAUAUUACGUUUG | -3.93 ± 0.16 | -2.79 ± 0.18
CCGAAGCAAUAUUACGACUG | -1.06 ± 0.12 | 0.835 ± 0.17
CCGAAGCAAUAUUACGAGAG | -3.28 ± 0.22 | -1.53 ± 0.19
CCGAAGCAAUAUUACGCAAA |  | -2.17 ± 0.38
CCGAAGCAAUAUUACGCCCC | -1.26 ± 0.24 | -2.89 ± 0.47
CCGAAGCAAUAUUACGCCUC | -1.84 ± 0.28 | 
CCGAAGCAAUAUUACGGACG | -0.955 ± 0.11 | 0.515 ± 0.12
CCGAAGCAAUAUUACGGACU | -2.33 ± 0.32 | -2.2 ± 0.34
CCGAAGCAAUAUUACGGGGC | -3.54 ± 0.24 | -1.64 ± 0.24
CCGAAGCAAUAUUACGUAAA | -3.14 ± 0.22 | -2.12 ± 0.33
CCGAAGCAAUAUUACGUCAG | -1.47 ± 0.071 | -0.198 ± 0.11
CCGAAGCAAUAUUACGUCUU | -3.58 ± 0.15 | -2.98 ± 0.21
CCGAAGCAAUAUUACGUGGA | -3.71 ± 0.29 | -2.47 ± 0.17
CCGAAGCAAUAUUACGUGGU | -4.68 ± 0.29 | -2.24 ± 0.2
CCGAAGCAAUAUUACGUGUG | -2.19 ± 0.059 | -0.959 ± 0.062
CCGAAGCAAUAUUACGUUCG | -3.33 ± 0.13 | -1.26 ± 0.11
CCGCAGCAAUAUUACGAAGG | -3.52 ± 0.18 | -2.98 ± 0.29
CCGCAGCAAUAUUACGACAA | -3.68 ± 0.23 | -2.21 ± 0.24
CCGCAGCAAUAUUACGACAC | -2.84 ± 0.28 | -2.71 ± 0.38
CCGCAGCAAUAUUACGACAU | -3.899 ± 0.024 | -2.94 ± 0.039
CCGCAGCAAUAUUACGAGAU | -4.09 ± 0.42 | -2.2 ± 0.19
